Measurements from article PMC11410209.

Target: 2526 IgG3
Test: ELISA
Conditions: read off a plot

Row | Substance | response | response (parent: est. 4.0)
1 | WT-NTD N149A | 1 Abs (450nm) | –
2 | H1 NC99 trimer, wild type HA (Fig 5A) (from UniProt Q6WG00) N23T | – | 2.8 Abs (450nm)
3 | WT-NTD N165A | 2.7 Abs (450nm) | –
4 | WT-NTD N234A | 1.7 Abs (450nm) | –
5 | WT-NTD N61A | 2.7 Abs (450nm) | –
